Data published in the supplement of paper PMC12764529.
± gives the half width of the 95% confidence interval.

How the values were obtained:
[1] = folding stability dG unfold (combined trypsin and chymotrypsin); higher = more stable
Summary of the method: (§1)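 Digests were run with trypsin and chymotrypsin at 11 concentrations in threefold dilutions, plus a no-protease condition, on designed mini-proteins in a PA-tagged cDNA display construct. The mini-proteins were under 80 residues, had no cysteine, and were kept only when AlphaFold2 dimer inter-PAE was above 15. After sequencing, Bayesian fitting of the counts gave K50, from which unfolding free energy was derived against a sequence-predicted unfolded-state K50 and a shared folded-state K50, per protease or combined.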

[2] = folding stability dG unfold from trypsin proteolysis; higher = more stable
Summary of the method: as §1

[3] = folding stability dG unfold from chymotrypsin proteolysis; higher = more stable
Summary of the method: as §1

Row | Sequence | folding stability dG unfold [1] | folding stability dG unfold [2] | folding stability dG unfold [3]
1 | SAGGSAGGNMIPVKARMKWPDGKEFPFEIMVQYQPDGQMQIEIQNPGDGETVTFPNMKLIDVEISAGGSAGG [r6_255_TrROS] | 0.469 ± 0.06 kcal/mol | -0.656 ± 0.26 kcal/mol | 0.828 ± 0.021 kcal/mol
2 | SAGGSAGGNTITVFMPYSQARELAEELRDEGITVDIQPYPDWMFITVEIKVPKIDPEDNPDNKDSAGGSAGG [r6_392_TrROS] | 1.35 ± 0.089 kcal/mol | 1.43 ± 0.047 kcal/mol | 1.3 ± 0.074 kcal/mol
3 | SAGGSAGGPEIDLKEVRVFYPPGGERLVLVEVRDDVPLEQVRDWVLERGGEFYRELPNQILVRGSAGGSAGG [r6_543_TrMRF] | -0.00273 ± 0.18 kcal/mol | 0.0648 ± 0.21 kcal/mol | -0.179 ± 0.34 kcal/mol
4 | SAGGSAGGPEITIIIGNAGPIEVALKTAKEIKKILEEKGYPNVKIPILIIPFGSPEKLKEALGGSAGGSAGG [r6_476_TrMRF] | 0.383 ± 0.29 kcal/mol | 0.0997 ± 0.1 kcal/mol | -0.0243 ± 0.32 kcal/mol
5 | SAGGSAGGPEVKILKVDPENNTITLALPVDNEILLLEIKIEPDPENPNSFKATIELKVFPYNEASAGGSAGG [r6_371_TrMRF] | 2.8 ± 0.26 kcal/mol | 2.33 ± 0.28 kcal/mol | 3.21 ± 0.096 kcal/mol
6 | SAGGSAGGPEYQMIPVKNVEIDEFDPNDGNVTIKFKGNGQEIKLPPDGIQSIEISPDQGWIYIRSAGGSAGG [r6_315_TrROS] | -0.273 ± 0.12 kcal/mol | -0.318 ± 0.093 kcal/mol | -0.365 ± 0.22 kcal/mol
7 | SAGGSAGGPKEYYRVTVYVRNKDGEWEKVAEIEVPGMTEEELKELLAKLGLPPGAEVEIKIEKVSAGGSAGG [r6_88_TrROS_Hall] | 5.01 ± 0.21 kcal/mol | 5.02 ± 0.49 kcal/mol | 4.92 ± 0.15 kcal/mol
8 | SAGGSAGGPLENDIPIPLTVPLPGPGTAELFLLPSTGEVLALVEGKPYLVSLEDLKDGVFRLGLSAGGSAGG [r6_939_TrMRF] | 0.576 ± 0.12 kcal/mol | -0.577 ± 0.36 kcal/mol | 0.989 ± 0.17 kcal/mol
9 | SAGGSAGGPLRIEIEIKIEIFPFPDGWYLIRMTIKIKVYNPGEDGQPIAEYEITFYFIIPPGDFSAGGSAGG [r6_60_TrROS] | > 6 kcal/mol | 4.25 ± 0.17 kcal/mol | 6.06 ± 0.15 kcal/mol
10 | SAGGSAGGPLVVILPDPETGLFHVRVRYPDGTVESLGPFPSLEEALEALPSEGLGRVEVRPYLKSAGGSAGG [r6_307_TrMRF] | 1.28 ± 0.049 kcal/mol | 1.05 ± 0.014 kcal/mol | 1.44 ± 0.038 kcal/mol
11 | SAGGSAGGPNMYMFKLEIKWYDPGKGKPVATRPITVMVPEDDLPEILKNLPPGFEIKNITIFPMSAGGSAGG [r6_777_TrROS] | 2.45 ± 0.11 kcal/mol | 2.16 ± 0.058 kcal/mol | 2.5 ± 0.071 kcal/mol
12 | SAGGSAGGPNYFVRITIKMRKPNGKPIGEFPIWIPFKSKEQARSLADELAQMPGIEKVDIELVPSAGGSAGG [r6_475_TrROS] | 2.53 ± 0.051 kcal/mol | 2.22 ± 0.025 kcal/mol | 2.68 ± 0.031 kcal/mol
13 | SAGGSAGGPPGEPPDVKVIPIEIEHERYNPDDGEMEVETIPFPIVIAPDGTIYHGDRPIPPDDISAGGSAGG [r6_515_TrROS] | 1.8 ± 0.41 kcal/mol | 2.02 ± 0.24 kcal/mol | 1.41 ± 0.09 kcal/mol
14 | SAGGSAGGPPVEERELTLPDGTRLTITRYPDSYTVEVTLPDGTVETRTYPDVTPEEAVAAVKAASAGGSAGG [r6_459_JUSTAS] | 1.85 ± 0.051 kcal/mol | 1.68 ± 0.043 kcal/mol | 1.927 ± 0.013 kcal/mol
15 | SAGGSAGGPVKIHVHVNPEEGYYMIEVRSGNEPRHIMIPMDKEEIKSFIENLPPGIEVEIHPMPSAGGSAGG [r6_401_TrROS] | 1.4 ± 0.14 kcal/mol | 1.37 ± 0.067 kcal/mol | 1.19 ± 0.072 kcal/mol
16 | SAGGSAGGQEEEAEALAKEVEAPAREALPGTEVTVTVTVTRREDGSLEVDVTIEGDFALPAALLSAGGSAGG [r6_999_JUSTAS] | 0.783 ± 0.24 kcal/mol | 0.813 ± 0.065 kcal/mol | 0.636 ± 0.067 kcal/mol
17 | SAGGSAGGRIEVDPEGATIKYEHNPNMMQIEIKYPGKKVQIMIPPDFMKQNPDMPIKDLVEWILSAGGSAGG [r6_369_TrROS] | 1.11 ± 0.23 kcal/mol | 1.09 ± 0.081 kcal/mol | 0.94 ± 0.089 kcal/mol
18 | SAGGSAGGRKTRRLVLEVDDIPEGVSAEELTEEELRRLGLPPDARIRVVRRPDGRLLVVIEVRESAGGSAGG [r6_551_TrROS_Hall] | 2.42 ± 0.051 kcal/mol | 1.64 ± 0.022 kcal/mol | 2.71 ± 0.0092 kcal/mol
19 | SAGGSAGGSAAAPPPPTITITVEVRTLPDGTVEITATATLPDGTTLTVTLRINADGSLTATSAGGSAGGSAG [r3_259_TrROS_Hall] | 3.17 ± 0.23 kcal/mol | 1.91 ± 0.13 kcal/mol | 3.4 ± 0.17 kcal/mol
20 | SAGGSAGGSAAISIDLPPNSVLNISIPVTEPGGKPYTVKISVYSTPLPSNSYELNIKVTIVSAGGSAGGSAG [r3_347_JUSTAS] | 4.43 ± 0.12 kcal/mol | 3.56 ± 0.15 kcal/mol | 4.66 ± 0.093 kcal/mol
21 | SAGGSAGGSAAITIPVPPGETVTIKIEIEMTVPPNQRNPDGQRMKPGQKVRMEVTFTFRVDGSAGGSAGGSA [r18_450_TrROS] | 4.24 ± 0.13 kcal/mol | 3 ± 0.11 kcal/mol | 4.63 ± 0.058 kcal/mol

Row | Sequence | folding stability dG unfold [1] | folding stability dG unfold [2] | folding stability dG unfold [3]
22 | SAGGSAGGSAAKIVDINISVRRSPENGYWKIPITIRIKGPNGKEQEIDLTMVFKIPPGQPLFSAGGSAGGSA [r18_95_TrROS] | 2.9 ± 0.15 kcal/mol | 2.83 ± 0.072 kcal/mol | 2.88 ± 0.043 kcal/mol
23 | SAGGSAGGSAAKPIPFTITSVSVPTAPDGKKYAVVEISFPGSGAKAWAVYDIDDPYIKEAGSAGGSAGGSAG [r3_57_TrMRF] | 1.37 ± 0.1 kcal/mol | 0.804 ± 0.095 kcal/mol | 1.71 ± 0.15 kcal/mol
24 | SAGGSAGGSAAPLEARLVSVSRDPAGNRLHAVYVVRDPSTGEQYLVTFSADPTSISVRVERVSAGGSAGGSA [r18_444_TrMRF] | 3.96 ± 0.071 kcal/mol | 2.69 ± 0.12 kcal/mol | 4.48 ± 0.089 kcal/mol
25 | SAGGSAGGSAAPTNPVEITLKRPDGTPVKATITFYPDGVKVTVEDGDTTTTSWLSPEEITLSAGGSAGGSAG [r3_373_JUSTAS] | 1.89 ± 0.03 kcal/mol | 2.09 ± 0.037 kcal/mol | 1.722 ± 0.015 kcal/mol
26 | SAGGSAGGSAAPVPPDRTLTVYRDPNTDKYTIRTPDGSVTVSPITPEELRAAGAPVVYLGPESAGGSAGGSA [r18_125_JUSTAS] | -0.297 ± 0.073 kcal/mol | -1 ± 0.25 kcal/mol | -0.0867 ± 0.12 kcal/mol
27 | SAGGSAGGSAAPVVREIEIDLPYPDGSPLTVEKVTEEPAPGTVHYEIKLPDGTVITRTVPTFSAGGSAGGSA [r18_370_JUSTAS] | -0.797 ± 0.24 kcal/mol | -0.92 ± 0.3 kcal/mol | -1.03 ± 0.39 kcal/mol
28 | SAGGSAGGSADAVVVEVTLPGGGKARAVFFPDGSVVIVVDFPDGRRAVIFLENNEIVVLPVDSAGGSAGGSA [r18_285_TrMRF] | 3.63 ± 0.12 kcal/mol | 3.73 ± 0.2 kcal/mol | 3.15 ± 0.19 kcal/mol
29 | SAGGSAGGSADDEIVAEFTFTVPGTGVKKVKVKVFKDPNSDEYWVRVEGKWLPVSNPEEALESAGGSAGGSA [r18_67_TrMRF] | 2.1 ± 0.14 kcal/mol | 1.62 ± 0.11 kcal/mol | 2.4 ± 0.066 kcal/mol
30 | SAGGSAGGSADELLDKLLNHKWLRDAMEKAPPGMEEIDIELPDGGKIRIRRTPNGGFRLEPSAGGSAGGSAG [r3_124_TrROS] | 1.76 ± 0.087 kcal/mol | 1.904 ± 0.019 kcal/mol | 1.48 ± 0.081 kcal/mol
31 | SAGGSAGGSADIKVEVEYDKSNGYMWVKIKLPGKDIPIWIPPNDSPEQMEEKAIDFAKYLLKSAGGSAGGSA [r18_266_TrROS] | 0.791 ± 0.27 kcal/mol | 0.592 ± 0.12 kcal/mol | 0.765 ± 0.21 kcal/mol
32 | SAGGSAGGSADNKPFKVEIDVEHHPPNGYYRVTIEWPDGREIVVWMPGNPDEAKDQAKELISAGGSAGGSAG [r3_143_TrROS] | 1.31 ± 0.16 kcal/mol | 1.28 ± 0.04 kcal/mol | 1.26 ± 0.22 kcal/mol
33 | SAGGSAGGSADPPRSVLKEERSPDGTTTYKLLEYPGERVLVVTRTPPDGTEEVVLIPEEELSAGGSAGGSAG [r3_167_JUSTAS] | 0.231 ± 0.086 kcal/mol | 0.322 ± 0.071 kcal/mol | 0.0217 ± 0.25 kcal/mol
34 | SAGGSAGGSADYFMVVIKYYPPNGEKQEHPFSVPFKDEEDLKDEIKEQAPPGREVEIEIFPMSAGGSAGGSA [r18_60_TrROS] | 0.647 ± 0.12 kcal/mol | 0.956 ± 0.083 kcal/mol | -0.0385 ± 0.17 kcal/mol
35 | SAGGSAGGSAEDVVLKVKIEIPSSDGTLLEIDEAIYNPKPGTLHFKIRSPDGSEFEIEIPLDSAGGSAGGSA [r18_370_TrMRF] | 1.12 ± 0.082 kcal/mol | 0.725 ± 0.033 kcal/mol | 1.44 ± 0.13 kcal/mol
36 | SAGGSAGGSAEELAKKLAEELRKEHNLEVTVEEVELKEEEIPGLKFKPGQKLLVITVKKKDSAGGSAGGSAG [r3_229_TrROS_Hall] | 0.604 ± 0.13 kcal/mol | 0.901 ± 0.033 kcal/mol | 0.227 ± 0.069 kcal/mol
37 | SAGGSAGGSAEELLKAFPNAEIVKYDPETKKFIIKLKDGSYLVVNLETGEIKLVSKEELEKASAGGSAGGSA [r18_381_TrROS_Hall] | 3.67 ± 0.076 kcal/mol | 2.66 ± 0.11 kcal/mol | 3.94 ± 0.066 kcal/mol
38 | SAGGSAGGSAEEPEFEIVSVEYDPETNVLTVVVRDKKTGRLYVFRFYPDGTVEVREVSLEDLSAGGSAGGSA [r18_521_TrROS_Hall] | 4.74 ± 0.076 kcal/mol | 3.37 ± 0.064 kcal/mol | 5.03 ± 0.057 kcal/mol
39 | SAGGSAGGSAEKPPPPVVTLRVRVVVEVDGKLYVATAEVRLVDGKLEIRVRIEEVPPGAPVSAGGSAGGSAG [r3_49_TrROS_Hall] | 4.34 ± 0.17 kcal/mol | 3.7 ± 0.12 kcal/mol | 4.59 ± 0.22 kcal/mol
40 | SAGGSAGGSAEPGPEELAKALAGELEKRFGKPVKEVKAYEIPGEKRYIVTAKLDDGEFTIIASAGGSAGGSA [r18_145_TrMRF] | -0.121 ± 0.38 kcal/mol | -0.267 ± 0.28 kcal/mol | -0.235 ± 0.28 kcal/mol
41 | SAGGSAGGSAEPPRYLVIELEVERSPEEIAEELRRRLGIERVEVEYDPETERLRVRVVVRLPSAGGSAGGSA [r18_275_TrROS_Hall] | 2.88 ± 0.11 kcal/mol | 1.96 ± 0.048 kcal/mol | 3.37 ± 0.047 kcal/mol
42 | SAGGSAGGSAEPVRLVVVTPGFPDGPPIPVEELEALLEAEDVTVVDPFTIPELGYVVLLVEASAGGSAGGSA [r18_466_TrMRF] | 1.07 ± 0.1 kcal/mol | 1.4 ± 0.048 kcal/mol | 0.728 ± 0.092 kcal/mol
